Drawing on the NTF2 design screens of Basanta et al. (2020), this text covers protease stability score for 47 sequences.

A short description of this series: protease stability score; higher = more stable; yeast display proteolysis, trypsin and chymotrypsin.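 Further: relative to predicted unfolded state with 0 unfolded-like and 1 meaning tenfold more protease.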
“SEESEHEEIIAEVTLELLATGDWRTLYELFDPNVRVHVGDKRSIGREQFVKIWKEFLEKFKNVVYKFKDIKWINGVVHIHMTLEYNGRRIEVNIHNFVYDGKIEHIHIEFKHL” registered a protease stability score of 1.66.

“SEESEKLERMMRLIMHLLWTGDEETFKRLADPDTRFIYGDFEVHGREDVSRMWIKLLNELRIHSLHVEEVHTIDGRIHAKTEVDGRYNGQHERTKLELIIVIINGRIHTVEIRPK”: the protease stability score came out at 1.22.

As to “SEETEETERVEREISHARLTGDEQFLKEMLDPNTRLLINGVILVGREALEHFVREMRVERVEVKDVRVQGDKLHIDTTSDVHYNGRRWTIKTHLIMVKVDGRWLMESVEFK”, the protease stability score came to 1.62.

Sequence “SEETEFAKEMLDIIFNLLRTGDWEYLVRLMDPHVRVIYGDKVTHGRDIIQYMHEHIRIRHLEFRHFDVIGDKINVDGRMEGEVNGRHDKTEMHIILLKINGRWSLHSIEIR” yielded a protease stability score of 1.39.

For “SEETEHIQKVMKDYIELVLTGDEEKWIHLADPHTRLILLFDGKEIHTHGWDRLIKVWQRIMEELGVDKVEIRMERVRSYGDKAESDVESRYNGRTHETEVTILVIDGRIKMVEVRFH”, the protease stability score worked out at 1.14.

In the case of “SEETEIIERAMKILLEILETGDEDRQRELMDPHYRLLIGDKVFHGREWAIKWAREIRVDRVELEDREIQGEKLLLHGHIHIRVGDKHHTMEVLIIVEKIDGRWRTHSRHVK”, the protease stability score worked out at 0.651.

For “SEETEYLRLAIELILNETRTGDEHTFMENADPDAKLNFNGVHLHGMEEVTRRMHELWEELRIRHFELHDVSHVDGRLYVHIRLDVDVNGQKRTFRSEIVSEKINGKWYYKYMTIV”, the protease stability score came to 1.27.

The sequence “SEETKEKHDFVEEWRHFLETGDEHELTRMIDPNVRVIINGQEHHGREAFEEMLKRIDVIHHVVIRKERSINGVIRLNFEVDGVINGRRHRTEFHIIVLKINGRWLIHQISIH” gave a protease stability score of 2.04.

With “SEETKNLEHWAKRFEHALETGDEEVLTKLFDPNVRLHFNGVNIHGWELYRKYHQRVDHVHFRIRSVHVYDGRVDMHTEVENRQGDKSHRMDTRLFAIKVNGVWLIESFEVH”, the protease stability score came to 0.486.

For the sequence “SEEVEEAVTKMRHIWEHFLTGDEDTLKELVDPTVRLEQGDKEYHGRDFYIKYSEHIRRRFKNLKIIERDMKFTVYNGKAQMQFDGELRVGDKSTEVVIFLHMRKIDGRWFIEAERIEIR”, the protease stability score worked out at 1.38.

For the sequence “SEEVEHAEKVMRHTVHNIETGDEETWSNLADPNVLFQQGEFNLHGRELMFEWVRKYYEKIKNARIEIEDVRVFDGQIEFDVTWRVGDKHLKVHLHIEVINGRITEVRVDEK”, the protease stability score worked out at 0.98.

The sequence “SEEYENAEKLTHHLTEILQTGDEQKLHELVDPHVKIHVDGVELHGMERYQELVDHWRIDSHTLHDFKIIGDKARVDSRVILTIGDKKERISLRFILVKIDGQWLNHEVEFN” registered a protease stability score of 1.79.

For “SEEYKRVKHMFDLWLHALITGDEDLMEELADPHVRHDINGVKNHGWETLIDREREWRIKRIDHRRSDAVNGRMHSDVHIDGIFDGKRHETDVTIHMIVVNGKFKTVEIRYH”, the protease stability score stood at 1.08.

The sequence “SEFDEASREAHEWFVELSKTGDEHEVKKFFDPNMRIDWNGVELIGRDTASKFFHELRFEHVRMEDVKFIDGVLRLDSHSIVNVNGQRFETRDDIVIEKFNGQWILKSIRVE” had a protease stability score of 1.

In the case of “SEFDRLSKEAVDILVHSLETGDWRSVSELFDPDYRLDVGDKRYHGREKVNEFMRHMGIKHVEIKRIHLQGDKAHIDSRMLVDGREFITHVIMEKVNGRWVITHISIE”, the protease stability score amounted to 1.01.

Sequence “SEFEEALKEHVKNIIRSVRTGDENELRRQLDPDAKLRINGQDYVGMEYVFHYLFEWRIHDTELKHIHVQGDKLTFNGETTGTYDGQKIHVRIRIIIWKVDGRWLSEHIDVI” displayed a protease stability score of 1.66.

The sequence “SEFEEIAHIMIRLFHHAMRTGDEHKLMKNFDPNTRIDVNGVEEHGRENLERHLHHLSRHLRVNDFKVKDVKDVDGRVVIDGIWNGEINGQETDVEVEVIIIKINGQWYIQHLKIK” had a protease stability score of 1.03.

Regarding “SEFEHRAHEVLEIMSNALHTGDEERMQKLMDPNVRIVIGDKENIGRETFMYWVKEIRFEIEIHIHRIDVINGRIHADTRLRIIIHYNGREHRDHFDVHFDIQKVDGRWVVHRIIVD”, the protease stability score was found to be 2.1.

For “SEFEKDSEHAARVLMHELHTGDFESLHELADPNDRNSLHIGDKHWFDHGRHWVRKWFERFKNATLIVEDIRLDVQGDKVRMEVDGHLNINGKHYRVHLIFILRKINGKWHVQQVDIHVD”, the protease stability score was 2.41.

The sequence “SEFENLQRLWLEILEHHSETGDERFMSRLADPNAKLLVNGKEFHGMEEVVEFIERLWEKFKNVRVEIHDFTVQGNKIDMDVILYYGEKVHRTEMHAVKYDGRWFMRELSIR” came in with a protease stability score of 1.38.

In turn, “SEHDDLIRHYAERIRKSLLTGDEHDLTELLDPNTYFEVRIGDFTLKAHGWERVHEVLDMINENLGIKHDDIQHIEWYGDKIHIDTRVRIGDKEIHTEVIIVVINGKVSKIEHRVI” displayed a protease stability score of 0.45.

“SEHDEDLENAWRVIKHSTETGDEETSRELIDPNARIDINGKDLHGREEISRIFSEWRVHHIEIKHVEHVGNKVHIDGHEDINVDGRRMETRIELIITKINGKWLVHSIRYI” gave a protease stability score of 0.53.

As for “SEHDEELERWARLILHLLYTGNEEELRKMMDPDVRLNVNGRELHGWKKAMELWRIIKEHLRIHHVDIHDIDVFDGRNHVDIRINTNINGQEYIYKTEIIIVIIDGRMRSHEVRVK”, the protease stability score worked out at 1.74.

The sequence “SEHDEELRHASEKLWHDILTGDWKSIKELADPNVRVIIWQGEKEINLHGREEVTRVIKEMGFKHTHIEHQSTINGRMIVDNHSNINGKRVHLHFVIEKINGRWFLHEMRIEFE” displayed a protease stability score of 1.47.

The sequence “SEHDEHIEHLLKEIIEDIETGDWHHWRHLADPHTRMEVGDKEKHGWKVYFEILHRYRGARLEFKSVDVQGDKIHVETHVHVNGRSFDTELRFYIVNGKMQEVIIQFR” yielded a protease stability score of 0.85.

In turn, “SEHDEHLQRNWERFLHHIETGDWRDHEENADPHARVHIGEFDLHGREKFSELFMRLGVKHIEIQRLIVQGDKITADTVVHYGDKRLKTNIFVTKINGRWQLHSIEMR” showed a protease stability score of 1.42.

Regarding “SEHDELLNRLSELLTHLILTGDWKTFSELADPNVLAITDINGRTRHHHGREHFLNLLEELLREFGIDHLWITHIDAFNGVSHTHVNIEVNGRTHELRLHIVIIDGKVHEVHFSFK”, the protease stability score was 0.34.

In turn, “SEHDELVKRNLEEMIRAAETGDEEKLRQLMDPHVKLEVNGREFVGREHWERFFREVIHRFGVTRIEIILHRIHDIDGRIYVDGTEVYGDYFERSLWISLKVNGKWVITHQHIH” showed a protease stability score of 0.336.

Sequence “SEHDEMIHKIAKEIMEVLVTGNEEWLDKLVDPHMRLEFNGKDIHGREKLNELLRKFKNVKLEYHINSIEAWDGRTQVNGKVHIEYGDKSRIKDTRLHVLIWDGKIREMRVDHD” returned a protease stability score of 2.23.

As for “SEHDEQAEDWTRKHIHWFETGDEELLETLLDPNTRHIVDGQEYHGRENLRRMFHYLLSFMGIKYVRLTNHEVVGDKAHIHMTTNVNGQHTRLILHLIVINGRVHTIEIRVR”, the protease stability score was determined as 0.544.

“SEHDERRRRVLELWFHALHTGDEEKLQELMDPDARLDINGVKLHGRDKLIEFFREWRFKHVDIHDMDEFNGVVNIKIEHVEIYNGQHRRVETRIFLIKINGRWHFRHIELH” gave a protease stability score of 1.66.

The sequence “SEHDESIHRHFEKIHESIRTGDEELLRKFLDPNTLLVNEDEKVVGWEQWVEQVRRHLTELGAKHVSFSLHDRRFFDGRLHLDSRVIIEIGDKRLSLETEVINLKFNGRWIITSLTSS” registered a protease stability score of 1.14.

Sequence “SEHDEYAKKVVEIIWKDMLTGDEDKFSEMADPDVRLDIGDKHHHGMEEMTEILTRVYKHIRIEDWRIRDIRHINGKAVVDGHTTIEIGDKRIHRRVELIVIVIDGRLKTLEYRVH” displayed a protease stability score of 1.09.

In turn, “SEHDHHSEWMSRLMFEAWLTGDEDFIMHLADPNTRSHLHYGDKEVNLHGRESFKRMVEELHRELGANHRDLKEVRLQGDKSLLRLEVRVGDKRREQHIIIIIVNGRVKSITVEVR” registered a protease stability score of 0.874.

In turn, “SEHDKEMREWIKTLFELMYTGDWVILRELADPNAKFRQGDFTKIGREQYERHVRRHLDLLGHDNIEIHWEDVEIVGNYAVFHGHLTFNGKSTHVIIRVFVIDGRMKHEHVEIK” registered a protease stability score of 1.3.

In turn, “SEHDKFTREMSEMLIEALLTGDWRIFEELADPNMRFHQGEFHFHGREEVSHRMLELVDLLGADHYDVREIRFQGDKIHTHLEYYIGDKLFRVDLHAEKVNGKWHLTIVHVDSH” returned a protease stability score of 2.03.

The sequence “SEHDKVLRELINLLWEALATGDFDQLHKLLDPHVKLDIGEWHSHGRESFIKNWLDDIRRVKNVRYELRHMDVINGQAHLDIHESYDGVRYDSELIIFIIDGKIHEITVHIR” gave a protease stability score of 0.83.

“SEHDNLMKEKLTLMEHTLMTGDEEVWRELLDPEALTTVDGQHFHGREEVVKFLRKVRRRVDHITSIEIESIDPQGEKLHLDGRNRIKIDGREIELNVVIIMRKINGRWFLRSWNVV” came in with a protease stability score of 1.22.

“SEHDRLAHEWMRVFLHSIWTGDEDTILKMIDPHMRLDIDGVTFHGRDDVREWFHHHRERVDHIKDVDIKDVRIFDGKAETDRIVHVQVDGKEVDEEVLVILIVIDGRVTSIIIEKR” gave a protease stability score of 1.12.

“SEHEDMFREMAELLLESLVTGDFRQLKRLADPHMRLKINGKDTHGREEFSRVFKELDDELGVDHIEIKHLRVQGDKIHIHGKMHFDGRWHERHVDVEIFNGVVRHHRVEIR” gave a protease stability score of 1.3.

“SEHEEASERMTRLTLHLFETGNEEVFNRLADPHTRVIINGQEHVGRETVIEFLKKERDELGADVLIIKDIDVERQGEKVEVIFHGEIKFNGRYYKVEIIIIYLKVDGKWFIESMKHIVK” returned a protease stability score of 2.37.

Take “SEHEEDARRIFERWINSVNTGDERLIYEMHDPHVRVEINGREFHGREEIHKLAHRIDHFKIHRIIERDVRLVNGRVELHGEIDYRFFFDGKELSSIHSLHMTLTKVNGRWSIEEERVK”: the protease stability score turned out to be 0.39.

“SEHEEDFKKATHEILEIWETGDEHRMSEYLDPNTRLSIDGKNIHGREKVEEILRRHWERLGIDHLRIKDLRVHTIDGRMHLDILVRFHYNGVTIDVHLHFNLIKIDGKWYIRSILEIDR” gave a protease stability score of 0.418.

On to “SEHEEDLERFAREWIHIFKTGDFKMFNKLADPNVRVHINGKDNHGMEQWKHLKDRHEKELGVDRVDIHVDDVRFIGDKIEMDVTVRQGEFSTRWHVELIVVDGRLKHVSFHVR”, for which the protease stability score was 1.16.

In turn, “SEHEEEARKASQESLHDLKTGDEDSFERLLDPNTRVIVLFDGREIIHVGREEVTRFISEWLKRYKGMRIEMQDVRVIDGRIDIHLKTDVDGKDHRLDIHSEKINGQWFLKSIFVDVH” yielded a protease stability score of 1.95.

In turn, “SEHEEELHKFFEEFLKAVETGDWRRLMELIDPHARLHIHQGEKEDHDHGRKFLKEFLKRYPNLRIQVTSLRIDVIDGVAIIILRGHDDVNGVELHSTIRIVVTKVNGQWRVEEVEIRIR” showed a protease stability score of 1.38.

For the sequence “SEHEEESHIAFEIYQKWVQTGDWEQLDHNFDPDTRVEINGVEHVGMEHFHELEKRLHEHLGISKINSHVKHFEIFDGRLELFTIMEFNGRRIRTHHIAHKVNGRWRIKSIRFE”, the protease stability score was found to be 1.43.
